One substance from paper PMC9864105 can be followed below.

The target of the assay is recombinant HIV-1 RTIN (reverse transcriptase and integrase in fusion form, the Pol precursor intermediate) (HIV-1 (NL4-3)). In words: SEC. A general note: SEC sorts molecules by how far they enter the pores of the column.

Take “recombinant HIV-1 RTIN (reverse transcriptase and integrase in fusion form, the Pol precursor intermediate) (enzyme)”: the share of rRTIN in the hexamer or higher multimer was found to be 80%.
